{
  "source": "patent US20200140562A1",
  "about": "(Innovent, published 2020)",
  "key": {"[1]": {"molecular_target": "T1, human OX40 on cells (CHO-hOX40, 293HEK-hOX40, Jurkat-hOX40, activated primary CD4+ T cells) (human, UniProt P43489 29-277)", "T1 construct": "whole, on cells; The cell type is told in each assay; also called CHO-OX40", "T1 sequence (looked up)": "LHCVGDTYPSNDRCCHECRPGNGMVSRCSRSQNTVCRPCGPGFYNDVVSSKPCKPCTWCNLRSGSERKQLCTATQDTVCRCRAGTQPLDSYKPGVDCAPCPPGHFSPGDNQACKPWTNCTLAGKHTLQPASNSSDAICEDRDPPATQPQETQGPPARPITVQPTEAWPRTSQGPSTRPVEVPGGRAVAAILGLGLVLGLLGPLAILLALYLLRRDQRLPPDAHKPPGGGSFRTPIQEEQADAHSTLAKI", "assay": "flow cytometry, CHO-hOX40, 100 nM blocker, competitor OX40L-hFc-fluorescein"}, "[2]": {"molecular_target": "T1, human OX40 on cells (CHO-hOX40, …)", "assay": "flow cytometry, CHO-hOX40, 12.5 nM"}, "[3]": {"molecular_target": "T1, human OX40 on cells (CHO-hOX40, …)", "assay": "flow cytometry, CHO-hOX40, 0.024414063 nM"}, "[4]": {"molecular_target": "T1, human OX40 on cells (CHO-hOX40, …)", "assay": "flow cytometry, CHO-hOX40, 0.09765625 nM"}, "[5]": {"molecular_target": "T1, human OX40 on cells (CHO-hOX40, …)", "assay": "flow cytometry, CHO-hOX40, 100 nM"}, "[6]": {"molecular_target": "T1, human OX40 on cells (CHO-hOX40, …)", "assay": "flow cytometry, CHO-hOX40, 25 nM"}, "[7]": {"molecular_target": "T1, human OX40 on cells (CHO-hOX40, …)", "assay": "flow cytometry, CHO-hOX40, 6.25 nM"}, "[8]": {"molecular_target": "T1, human OX40 on cells (CHO-hOX40, …)", "assay": "flow cytometry, CHO-hOX40, 12.5 nM", "remark": "listed apart in the source"}, "[9]": {"molecular_target": "T1, human OX40 on cells (CHO-hOX40, …)", "assay": "flow cytometry, CHO-hOX40, 0.78125 nM"}, "[10]": {"molecular_target": "T1, human OX40 on cells (CHO-hOX40, …)", "assay": "flow cytometry, CHO-hOX40, 0.78125 nM", "remark": "listed apart in the source"}, "[11]": {"molecular_target": "T1, human OX40 on cells (CHO-hOX40, …)", "assay": "flow cytometry, CHO-hOX40, 3.125 nM"}, "[12]": {"molecular_target": "T1, human OX40 on cells (CHO-hOX40, …)", "assay": "flow cytometry, CHO-hOX40, 0.1953125 nM"}, "[13]": {"molecular_target": "T1, human OX40 on cells (CHO-hOX40, …)", "assay": "flow cytometry, CHO-hOX40, 1.5625 nM"}},
  "data": [
    {"binder": "OX40L (control reagent; recombinant OX40L, Acro Biosystems) (ligand, UniProt P23510 51-183, looked up, may be the same reagent as OX40L-hFc) QVSHRYPRIQSIKVQFTEYKKEKGFILTSQKEDEIMKVQNNSVIINCDGFYLISLKGYFSQEVNISLHYQKDEEPLFQLKKVRSVNSLMVASLTYKDKVYLNVTTDNTSLDDFHVNGGELILIHQNPGEFCVL", "values": [
      {"measurement": "MFI of OX40L signal on CHO-OX40 cells", "setting": "[1]", "result": 19300, "unit": "MFI"},
      {"measurement": "MFI", "setting": "[2]", "result": "1.99e+06", "unit": "MFI"},
      {"measurement": "MFI", "setting": "[3]", "result": 7970, "unit": "MFI"},
      {"measurement": "MFI", "setting": "[4]", "result": 14500, "unit": "MFI"},
      {"measurement": "MFI", "setting": "[5]", "result": "2.51e+06", "unit": "MFI"},
      {"measurement": "MFI", "setting": "[6]", "result": "2.8e+06", "unit": "MFI"},
      {"measurement": "MFI", "setting": "[7]", "result": "1.48e+06", "unit": "MFI"},
      {"measurement": "MFI", "setting": "[8]", "result": "1.11e+06", "unit": "MFI"},
      {"measurement": "MFI", "setting": "[9]", "result": 86000, "unit": "MFI"},
      {"measurement": "MFI", "setting": "[10]", "result": 317000, "unit": "MFI"},
      {"measurement": "MFI", "setting": "[11]", "result": 342000, "unit": "MFI"},
      {"measurement": "MFI", "setting": "[12]", "result": 24800, "unit": "MFI"},
      {"measurement": "MFI", "setting": "[13]", "result": 172000, "unit": "MFI"}
    ]}
  ]
}
